One molecule from paper doi:10.1101/2022.06.06.494913 (bioRxiv, 2022) can be followed below.

In the experiment the target is EIIA^Glc (UniProt P69783 2-169). Kind of experiment: SPR + ELISA.

A word on the Kd: it is the free concentration of one partner at which half of the binding sites on the other are occupied at equilibrium, for simple one-to-one binding.

EIIA^Glc, sequence (P69783 2-169): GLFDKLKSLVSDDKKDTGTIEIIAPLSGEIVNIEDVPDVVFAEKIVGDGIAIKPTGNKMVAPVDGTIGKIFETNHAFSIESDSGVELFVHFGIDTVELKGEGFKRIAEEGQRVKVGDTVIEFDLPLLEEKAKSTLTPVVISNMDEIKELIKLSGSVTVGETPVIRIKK

B1: EIIB^Glc (domain or fragment)
chain: EDATEDAKATGTSEMAPALVAAFGGKENITNLDACITRLRVSVADVSKVDQAGLKKLGAAGVVVAGSGVQAIFGTKSDNLKTEMDEYIRN
With B1, the equilibrium dissociation constant (Kd) was greater than 10 µM.
